Data on four molecules can be found in paper PMC5050915, “CYP79D enzymes contribute to jasmonic acid-induced formation of aldoximes and other nitrogenous volatiles in two Erythroxylum species” (BMC Plant Biology, 2016).

In one data set the target is T1, CYP79D61 (Erythroxylum fischeri, UniProt A0A1D8QQQ4).
T1 construct: complete ORF in pESC-Leu2d, Saccharomyces cerevisiae WAT11 microsomes
T1 sequence (A0A1D8QQQ4 1-531): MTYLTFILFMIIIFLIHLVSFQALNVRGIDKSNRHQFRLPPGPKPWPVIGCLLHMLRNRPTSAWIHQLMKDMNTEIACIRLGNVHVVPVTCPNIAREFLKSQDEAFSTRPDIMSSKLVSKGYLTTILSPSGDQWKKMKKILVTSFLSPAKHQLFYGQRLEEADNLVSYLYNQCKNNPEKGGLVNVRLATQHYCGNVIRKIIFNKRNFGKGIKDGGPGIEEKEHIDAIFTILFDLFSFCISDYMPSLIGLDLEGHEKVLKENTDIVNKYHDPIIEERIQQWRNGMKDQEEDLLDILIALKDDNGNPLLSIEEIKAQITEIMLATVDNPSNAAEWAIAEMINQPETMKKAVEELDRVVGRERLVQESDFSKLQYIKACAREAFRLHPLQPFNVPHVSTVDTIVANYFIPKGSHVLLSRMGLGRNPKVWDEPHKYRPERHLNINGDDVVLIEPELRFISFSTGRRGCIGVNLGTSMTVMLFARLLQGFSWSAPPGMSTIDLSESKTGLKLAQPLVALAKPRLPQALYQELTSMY
Nature of the data set: aldoxime formation by recombinant yeast microsomes, LC-MS/MS. In kind it is biochemical. Conditions: 1 mM substrate, 1 mM NADPH, 75 mM sodium phosphate pH 7.0, 25 °C.

Substrate in data set [1]: N[C@@H](Cc1ccc(O)cc1)C(=O)O
Put plainly: cells, lysate or membranes. To be noted: 1 mM NADPH, 75 mM sodium phosphate pH 7.0, 25 °C.

Substrate in data set [2]: CC[C@H](C)[C@H](N)C(=O)O
Put plainly: cells, lysate or membranes. Conditions: 1 mM NADPH, 75 mM sodium phosphate pH 7.0, 25 °C.

Substrate in data set [3]: N[C@@H](Cc1ccccc1)C(=O)O
Put plainly: aldoxime formation by recombinant yeast microsomes, LC-MS/MS. In kind it is biochemical, Erythroxylum coca. Conditions: 1 mM NADPH, 75 mM sodium phosphate pH 7.0, 25 °C.

Substrate in data set [4]: N[C@@H](Cc1c[nH]c2ccccc12)C(=O)O
Described as above. Conditions: 1 mM NADPH, 75 mM sodium phosphate pH 7.0, 25 °C. In kind it is biochemical, Erythroxylum coca.

Substrate in data set [5]: N[C@@H](Cc1c[nH]c2ccccc12)C(=O)O
The data set is described as above. In kind it is biochemical, Erythroxylum coca. Conditions: 1 mM NADPH, 75 mM sodium phosphate pH 7.0, 25 °C. From the text:
aldoxime formation by recombinant yeast microsomes, LC-MS/MS on CYP79D63
This is another data set of the same source.

Substrate in data set [6]: N[C@@H](Cc1ccccc1)C(=O)O
The data set is described as above. In kind it is biochemical, Erythroxylum fischeri. Conditions: 1 mM NADPH, 75 mM sodium phosphate pH 7.0, 25 °C.

Substrate in data set [7]: N[C@@H](Cc1c[nH]c2ccccc12)C(=O)O
The description is as above. In kind it is biochemical, Erythroxylum fischeri. Conditions: 1 mM NADPH, 75 mM sodium phosphate pH 7.0, 25 °C.

As to `N[C@@H](Cc1ccccc1)C(=O)O` [L-Phe], the “aldoxime formation by recombinant yeast microsomes, LC-MS/MS” value at CYP79D61 is “CYP79D62, CYP79D60, and CYP79D61 accepted all tested amino acids”.

B1: CYP79D62 (Erythroxylum coca) (protein)
chain: MTYLILILIMIILVSFQALNVRCNDKSNRHQLQLPPGPKPWPVIGCLPQMLRNRPTFAWIHQLMKDMNTEIACIRLGNVHVIPVTCPNIAREFLKSQDEAFSSRPDFMSNKLVSKRYLTTALSPSGDQWKKMKKILVTSFLSPAKHQLFYGKRLEEADNLVSYLYGQCKNNPEKGGLVNVRLATRHYCGNVIRKIVFNKRNFGEGMKDGGPGIEEKEHIDAIFTILSYLFSFCISDYMPSLIGLDLEGHEKVLKENTDIVNKYHDPIIEERIQQWRNGMKDREEDLLDILIALKDDNGNPLLSIEEIKAQITEIILATVDNPSNAAEWAIAEMINQPEMMKKAVEELDRVVGRERLVQESDFVKLQYVKACAREAFRLHPLEPFNIPHVSTVDTTVANYFIPKGSHVLLSRMGLGRNPKVWDEPHKYKPERHLSNGDDVVLIEPELRFISFSTGRRGCIGVNLGTSMTVMLFARLLQGFSWSAPPGKLAINLNESKTGLALAQPLVALAKPRLPQALYQELTSCINHS
notes: complete ORF in pESC-Leu2d, Saccharomyces cerevisiae WAT11 microsomes
In the case of B1, the Km (usually the concentration of substrate that gives half-maximal velocity) in data set [1] came to 4990 ± 460 µM; in data set [2], 3270 ± 420 µM; in data set [3], 670 ± 70 µM; in data set [4] it was 1090 ± 40 µM.

B2: CYP79D63 (Erythroxylum coca) (protein)
chain: MTYLILILIMIISFLIHLVSFQALNVRGSGKSNRHQFQLPPGPKPWPVIGCLPQMLRNRPTFAWIHQLMKDMNTEIACIRLGSIHVIPVTCPNIAREILKSQDEAFSSRPDFMSSTLVSRGYLATTLSPPGDQWKKMRKILVTSCLSPAKHRLFYRKRLEVADNLVSYLYSQCKDNPEKGGLVNVRLATQHYCGNVIRKIVFNKRNFGKGMKDGGPGIEEKEHIDALFTILFYVFSFCISDYMPSLIGLDLEGHEKVLKENTDIVNKYHDPIIQERIRQWRNGMKDQEEDLLDILIALKDNNGNPLLSIEEIKAQITEIVLASVDNPSNAAEWAIAEMINQPKIMKKAVEELDSVVGSERLVQESDFSKLQYVKACAREAFRLHPMQPFNVPHVSTMDTTIANYFIPKGSHVLLSRMRLGRNSKVWDEPHKYRPERHLSNGDDVLLIEPELRFISFSTGRRGCIGVNLGTSMTIMLFARLLQGFNWSAPPGKSAVDLNESKIGLTLAQPLVALAKPRLPQALYQELTSCINHS
notes: as for B1
Regarding B2, the Michaelis-Menten constant (Km) in data set [5] is 480 ± 50 µM.

B3: CYP79D60 (Erythroxylum fischeri) (protein)
chain: MTYLILILIMIITFLIHLVSFQALNVRGSDKSNRQQFQLPPGPKPWPVIGCLLQMLRNRPTSAWIHQLMKDMNTEIACIRLGNVHVIPVTCPNIAREFLKSQDEAFSSRPDFMSNKLVSKGYLTTALSPSGDQWKKMKKILVTSFLSPAKHKLFYGKRLEEADHLVSYLYNQCKNNPEKGGLVNVRLATQHYCGNVIRKIVFNKRNFGKGMEDGGPGIEEKEHIDALFTILFYLFSFCISDYMPSLIGLDLEGHEKVLRENTDIVNKYHDPIIEERIQQWRNGMKDQEEDLLDILIALKDDNGSPLLSIEEIKAQITEIMIAAVDNPSNAAEWAIAEMINQPETMKKAVEELDRAVGRERLVQESDFSKLKYIKACAREAFRLHPMEAFNVPHVSTVDTIVANYFIPKGSHVLLSRMGIGRNPKVWDEPHKYKPERHLKNGDDVVLTEPELRFISFSTGRRGCIGVNLGTSMTVMLFARLLQGFSWSAPPGMSTIDLSESKTGLKLAQPLVALAKPRLPQALYQELTSCINHS
notes: as for B1
As for B3, the Km in data set [1] came to 6090 ± 1320 µM; in data set [2], 1280 ± 250 µM; in data set [6], 580 ± 50 µM; in data set [7], 2740 ± 110 µM.
